Data on two substances can be found in patent publication US20070224615A1.

Experiment [1] deals with CCR5-tTA fusion construct containing the low efficiency cleavage site (UniProt P51681). The experiment can be described thus: cell-based or functional assay.
Experiment [2] addresses EGFR-TEV-NIa-Pro cleavage (Leu)-tTA (human) (UniProt P00533). The experiment can be described thus: cell-based or functional assay.

UniProt P51681, sequence (P51681 whole entry, the tested form may be a part): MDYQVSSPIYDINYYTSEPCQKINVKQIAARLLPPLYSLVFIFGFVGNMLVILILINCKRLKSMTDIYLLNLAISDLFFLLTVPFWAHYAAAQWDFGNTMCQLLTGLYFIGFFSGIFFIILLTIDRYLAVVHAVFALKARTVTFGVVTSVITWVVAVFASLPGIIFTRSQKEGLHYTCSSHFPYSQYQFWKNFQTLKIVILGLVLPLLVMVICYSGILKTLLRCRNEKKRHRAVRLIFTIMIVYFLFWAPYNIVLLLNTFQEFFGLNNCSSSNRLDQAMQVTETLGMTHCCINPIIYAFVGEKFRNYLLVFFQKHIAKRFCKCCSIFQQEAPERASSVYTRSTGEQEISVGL

“Regulated on Activation, Normal T-Cell Expressed and Secreted (RANTES) (from UniProt P13501 24-91) (ligand)”: the induction of β-galactosidase reporter gene expression over background at 1 µg/ml RANTES, clone 34 cells with stable ARRB2-TEV-NIa protease in experiment [1] turned out to be 40 fold. Turning to “human Transforming Growth Factor-Alpha (from UniProt P01135 40-89) (ligand)”, the increase of luciferase reporter gene activity at 100 ng/ml ligand, cells co-expressing PLC Gamma1-TEV in experiment [2] worked out at 18.3 fold.
